Data set [1] in a line: Dependence of specific activity on pH for hydrolysis of triacetin by CE-7 esterases/perhydrolases (cell extracts of E. coli KLP18 transformants). In kind it is biochemical. The following applies: 200 mM triacetin, 25° C. The method, then:
A cell extract of an E. coli transformant expressing perhydrolase from Thermotoga neapolitana (KLP18/pSW196), Thermotoga maritima MSB8 (KLP18/pSW207), Bacillus pumilus PS213 (KLP1S/pSW195), Bacillus subtilis BE1010 (KLP18/pSW189), Bacillus subtilis ATCC® 31954™ (KLP18/pSW194), or Bacillus licheniformis ATCC® 14580™ (KLP18/pSW191) was prepared by passing a suspension of cell paste (20 wt % wet cell weight) in 0.05 M potassium phosphate buffer (pH 7.0) containing dithiothreitol (1 mM) twice through a French press having a working pressure of 16,000 psi (˜110 MPa). The crude extract was then centrifuged at 20,000×g to remove cellular debris, producing a clarified cell extract that was assayed for total soluble protein (Bicinchoninic Acid Kit for Protein Determination, Sigma Aldrich catalog #BCA1-KT). A portion of the clarified Thermotoga maritima MSB8 or Thermotoga neapolitana perhydrolase-containing extract was additionally heated for 20 min at 75° C., followed immediately by cooling in an ice/water bath to 5° C. The resulting mixture was centrifuged to remove precipitated protein, and the supernatant collected and assayed for total soluble protein as before.
Reactions (10 mL total volume) containing triacetin (200 mM) and cell extract supernatant (prepared as described above) were run at 25° C. and at a pH between 4.5 and 10.0, using the buffers and buffer concentrations listed in Table 5. The concentration of extract total protein (with or without heat-treatment to denature and precipitate E. coli-derived protein) was chosen to produce an ca. 50 mM decrease in triacetin concentration over 30 min (typically from 0.025 mg/mL to 0.40 mg/mL of total extract protein, dependent on the perhydrolase). A control reaction for each reaction condition was run to determine the concentration of triacetin hydrolyzed in the absence of added extract protein. Samples (100 μL) were removed at predetermined times and immediately added to 297 μL of dd H2O and 3 μL of 6N HCL. The resulting solution was mixed, then filtered using a 30,000 NMWL filter (Millipore) using a microcentrifuge for 2 min at 12,000 rpm. An aliquot of the filtrate (100 μL) was added to 150 μL of 0.417 mM N,N-diethyl meta-toluamide (external standard) in acetonitrile, and the resulting solution analyzed for triacetin by HPLC using a Supelco Discovery C8 column (25 cm×4.0 mm, 5 um; Supelco #59353-U40) and an isocratic mobile phase of 40% acetonitrile/60% distilled water at a flow rate of 1 mL/min. Triacetin was measured by UV detection at 225 nm.

The nature of data set [2]: Peracetic acid production by perhydrolases, control by initial reaction pH in sodium citrate buffer. In kind it is biochemical. Conditions: triacetin 100 mM, 0.050 mg/mL extract total protein, 25° C. The method, then:
A cell extract of a transformant expressing perhydrolase from Bacillus pumilus PS213 (KLP18/pSW195), Thermotoga maritima MSB8 (KLP18/pSW207), Thermotoga neapolitana (KLP18/pSW196), or Bacillus subtilis ATCC® 31954™ (KLP18/pSW194) was prepared by passing a suspension of cell paste (20 wt % wet cell weight) in 0.05 M potassium phosphate buffer (pH 7.0) containing dithiothreitol (1 mM) twice through a French press having a working pressure of 16,000 psi (˜110 MPa). The crude extract was then centrifuged at 20,000×g to remove cellular debris, producing a clarified cell extract that was assayed for total soluble protein (Bicinchoninic Acid Kit for Protein Determination, Sigma Aldrich catalog #BCA1-KT). The supernatant was frozen in dry ice and stored at −80° C.
Reactions (10 mL total volume) containing triacetin, hydrogen peroxide and centrifuged cell extract supernatant (prepared as described above) in 50 mM sodium citrate buffer (initial pH 7.2 or 6.5) were run at 25° C. A control reaction for each reaction condition was run to determine the concentration of peracetic acid produced by chemical perhydrolysis of triacetin by hydrogen peroxide in the absence of added extract protein (data not shown). Determination of the concentration of peracetic acid in the reaction mixtures was performed according to the method described by Karst et al., supra.

[3] abbreviates: initial pH 6.5, sodium citrate 50 mM, H2O2 100 mM.
Where [4] appears, read: initial pH 6.5, sodium citrate 50 mM, H2O2 250 mM.
Setting [5] is: initial pH 7.2, sodium citrate 50 mM, H2O2 100 mM.
Setting [6] is: initial pH 7.2, sodium citrate 50 mM, H2O2 250 mM.

B1: B. pumilus PS213: acetyl xylan esterase with perhydrolase activity from Bacillus pumilus PS213 (SEQ ID NO: 10), cell extract of E. coli KLP18/pSW195 (protein, listed as Bacillus pumilis)
chain: MQLFDLSLEELKKYKPKKTARPDFSDFWKKSLEELRQVEAEPTLESYDYPVKGVKVYRLTYQSFGHSKIEGFYAVPDQTGPHPALVRFHGYNASYDGGIHDIVNWALHGYATFGMLVRGQGGSEDTSVTPGGHALGWMTKGILSKDTYYYRGVYLDAVRALEVIQSFPEVDEHRIGVIGGSQGGALAIAAAALSDIPKVVVADYPYLSNFERAVDVALEQPYLEINSYFRRNSDPKVEEKAFETLSYFDLINLAGWVKQPTLMAIGLIDKITPPSTVFAAYNHLETDKDLKVYRYFGHEFIPAFQTEKLSFLQKHLLLST
As to B1, the “specific activity (mmol triacetin/min/mg total extract protein)” value in data set [1] (pH 5.0, sodium acetate 0.15 M) is 1.8 mmol triacetin/min/mg total extract protein; in data set [1] (pH 5.5, sodium acetate 0.15 M), 3.5 mmol triacetin/min/mg total extract protein; in data set [1] (pH 6.0, sodium citrate 0.15 M), 4.2 mmol triacetin/min/mg total extract protein; in data set [1] (pH 6.5, sodium citrate 0.15 M) it was 11.6 mmol triacetin/min/mg total extract protein; in data set [1] (pH 7.0, potassium phosphate 0.15 M), 30.5 mmol triacetin/min/mg total extract protein; in data set [1] (pH 7.5, potassium phosphate 0.15 M) it was 33.7 mmol triacetin/min/mg total extract protein. Besides, the “specific activity (mmol triacetin/min/mg total extract protein)” value is 53.9 mmol triacetin/min/mg total extract protein in data set [1] (pH 8.0, potassium phosphate 0.20 M); 72.4 mmol triacetin/min/mg total extract protein in data set [1] (pH 8.5, Tris(hydroxymethyl)aminomethane 0.20 M); 80.4 mmol triacetin/min/mg total extract protein in data set [1] (pH 9.0, Tris(hydroxymethyl)aminomethane 0.20 M); 71.1 mmol triacetin/min/mg total extract protein in data set [1] (pH 9.5, glycine 0.20 M). Further, the “PAA, 1 min (ppm)” value in data set [2] (setting [3]) is 170 ppm; in data set [2] (setting [4]), 281 ppm; in data set [2] (setting [5]), 160 ppm; in data set [2] (setting [6]), 465 ppm. Moreover, the “PAA, 5 min (ppm)” value in data set [2] (setting [3]) was determined as 310 ppm; in data set [2] (setting [4]), 652 ppm; in data set [2] (setting [5]), 322 ppm; in data set [2] (setting [6]), 1170 ppm. Besides, the “PAA, 30 min (ppm)” value in data set [2] (setting [3]) is on record as 830 ppm; in data set [2] (setting [4]) it was 1984 ppm; in data set [2] (setting [5]), 1010 ppm; in data set [2] (setting [6]) it was 2525 ppm.
